For the first data set, the target named is T1, HLTF HIRAN domain (UniProt Q14527 51-171).
T1 sequence: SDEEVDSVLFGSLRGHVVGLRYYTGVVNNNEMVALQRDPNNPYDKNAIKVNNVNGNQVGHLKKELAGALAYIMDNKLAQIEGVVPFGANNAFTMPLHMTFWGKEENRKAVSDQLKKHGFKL
The data set can be described thus: fluorescence polarization. For orientation: Fluorescence polarisation rises when a labelled molecule tumbles more slowly, as on binding a larger partner.
With TCC (ssDNA) [5'-FAM-TCC], binding was characterised by a dissociation constant (Kd) of 210 ± 70 nM.
Consider TTG (ssDNA) [5'-FAM-TTG], for which the Kd (usually a measure of binding affinity in units of concentration) came out at 30 ± 10 nM.
Same read-out and setting: under ATG (ssDNA) [5'-FAM-ATG] stands 90 ± 10 nM.
On the same count and under the same terms, with TTTG (ssDNA) [5'-FAM-TTTG] the figure was 100 ± 20 nM; with TATAT (ssDNA) [5'-FAM-TATAT], 250 ± 100 nM; with GTTG (ssDNA) [5'-FAM-GTTG], 220 ± 90 nM.
Take ATATA (ssDNA) [5'-FAM-ATATA]: the equilibrium dissociation constant (Kd) is 170 ± 60 nM.
The same measure, in the same setting: with GTG (ssDNA) [5'-FAM-GTG] the figure was 180 ± 10 nM; with CTG (ssDNA) [5'-FAM-CTG], 60 ± 10 nM; with AAAAA (ssDNA) [5'-FAM-A5], 160 ± 40 nM.

Another data set deals with T1, HLTF HIRAN domain. Kind of data set: fluorescence polarization. The source holds these as a separate data set.
TTTTT (ssDNA) [5'-FAM-T5]: the dissociation constant Kd is 140 ± 30 nM.

The target of a further data set is T1, HLTF HIRAN domain. Kind of data set: competition.
For CCG (ssDNA), the half-inhibitory concentration (IC50) (in general, the concentration that gives 50% inhibition) stood at 3.6 ± 0.2 µM.
The same measure, in the same setting: under TCT (ssDNA) stands 6.8 ± 0.7 µM; under GTTG (ssDNA), 1.7 ± 0.1 µM.
The same measure, in the same setting: with GGT (ssDNA) the figure was 5.4 ± 0.2 µM; with TTC (ssDNA), 13.5 ± 0.6 µM.
Still for that read-out and setting: with CCT (ssDNA) the figure was 6.9 ± 0.07 µM; with TTTG (ssDNA), 2 ± 0.2 µM; with TTA (ssDNA), 4.3 ± 0.4 µM.
TGT (ssDNA) had an IC50 of 15.5 ± 0.9 µM.
Same read-out and setting: with CTT (ssDNA) the figure was 10 ± 1.5 µM; with GGG (ssDNA), 20.2 ± 5.1 µM.
For CAG (ssDNA), the IC50 is 31.7 ± 3.9 µM.
On the same count and under the same terms, with TCC (ssDNA) the figure was 17.1 ± 4.8 µM.
Still for that read-out and setting: under GTG (ssDNA) stands 2.2 ± 0.07 µM; under CTG (ssDNA), 2.5 ± 0.2 µM; under TTT (ssDNA), 4.3 ± 0.9 µM.
Still for that read-out and setting: under TAT (ssDNA) stands 34.9 ± 9.2 µM; under TCG (ssDNA), 2.9 ± 0.3 µM; under TTG (ssDNA), 2.8 ± 0.5 µM.
Molecule TTTTT (ssDNA) [T5] showed a concentration for half-maximal inhibition (IC50) of 2.4 ± 0.6 µM.
On the same count and under the same terms, under CTTG (ssDNA) stands 1.6 ± 0.2 µM.
Regarding ATG (ssDNA), the concentration for half-maximal inhibition (IC50) was determined as 2.9 ± 0.4 µM.
For ATTG (ssDNA), the IC50 was 1.8 ± 0.2 µM.
Molecule GCC (ssDNA) registered an IC50 of 31.8 ± 8.5 µM.

Values taken from PMC9684356.
